Source: paper PMC10871292

Molecular target: Transglutaminase 2 (TG2), wildtype, human, recombinant (human) (UniProt P21980)
Assay: SAXS

“Transglutaminase 2 (TG2), wildtype, human, recombinant (from UniProt P21980 1-687) (enzyme)” showed a percent dimer (initial state, t=0 ms) of 61% and a percent monomer (initial state, t=0 ms) of 39%.
